Data on one molecule can be found in patent publication US7547509B2, “Cyanovirin variant-polymer conjugates” (priority 2002, dated 2009).

The subject of one data set is influenza A/Udorn (H3N2). Put plainly: Influenza virus inactivation assay (protection of MDCK cells). The note with it: read on day 5, read-out: ED50 (dose required to protect 50% of MDCK cells from influenza infection). It counts as cell-based.
The test system of a further data set is HIV. Nature of the data set: Anti-HIV bioassay conducted at the National Cancer Institute. It counts as cell-based. The note with it: against HIV, methods of U.S. Pat. No. 5,843,883. As to the method: Bioassays were conducted at the National Cancer Institute using the methods described in U.S. Pat. No. 5,843,883 (column 20, lines 20-55), which patent is incorporated herein by reference.

Data set [1] is described as follows: Acute toxicity dose escalation study in mice. It counts as in vivo, Hsd:ICR(CD-1) mice. The note with it: intravenously on three consecutive days, high doses / equivalent dose. The method, then:
To compare the acute toxicity of native CV-N and the PEG30 kD-MAL-CV-N(Q62C) conjugate, an in vivo dose escalation study was performed in which Hsd:ICR(CD-1) mice were administered modified or unmodified CN-N intravenously on three consecutive days.

B1: Cyanovirin-N (protein, listed as Nostoc ellipsosporum)
chain: LGKFSQTCYNSAIQGSVLTSTCERTNGGYNTSSIDLNSVIENVDGSLKWQPSNFIETCRNTQLAGSSELAAECKTRAQQFVSTKINLDDHIANIDGTLKYE
Turning to B1, the EC50 in the data set with influenza A/Udorn (H3N2) is 2.56 nM. This molecule yielded an ED50 in the data set on HIV of 1 ng/mL. The “acute toxicity (observation)” value in data set [1] is “death of all of the mice”.
